In article PMC11087509 (2024):
Where no end group is shown, it is not given here. [ ]: non-standard residue; d: D form. Gu = N-terminal tetramethylguanidine; Orn = NCCC[C@H](N)C(=O)O

Columns and labels:
[1] = molecular target: T1, purified E. coli 70S ribosome (E. coli (endogenous in BW25113), UniProt P60723 1-201; P61175 1-110; P0ADZ0 1-100; P0A7M6 1-63; P0A7J3 1-165); assay: FP; competition with cf-Api88
[2] = molecular target: T1, purified E. coli 70S ribosome; assay: FP; competition with cf-Api88; remark: listed apart in the source
[3] = molecular target: purified E. coli 30S ribosomal subunit (E. coli (endogenous in MRE600)); assay: FP
[4] = molecular target: purified E. coli 50S ribosomal subunit (E. coli (endogenous in MRE600), UniProt P60723 1-201; P61175 1-110; P0ADZ0 1-100; P0A7M6 1-63; P0A7J3 1-165); assay: FP
[5] = molecular target: T1, purified E. coli 70S ribosome; assay: FP

| Binder | Ki [1] [µM] | IC50 [2] [µM] | Kd [3] [µM] | Kd [4] [µM] | Kd [5] [µM] |
| --- | --- | --- | --- | --- | --- |
| VDKPPYLPRPRPPR[dR]IYN[dR]-NH2 [Onc112 (VDKPPYLPRPRPPRrIYNr-NH2)] | 1.87 | 9.8 | – | – | – |
| Gu-[Orn]NNRPVYIPRPRPPHPRL-OH [Api137 (Gu-ONNRPVYIPRPRPPHPRL-OH)] | 3.03 | 15.9 | – | – | – |
| Gu-[Orn]NNRPVYIPRPRPPHPRL-NH2 [Api88 (Gu-ONNRPVYIPRPRPPHPRL-NH2)] | 2.45 | 12.8 | – | – | – |
| Gu-[Orn](5(6)‑carboxyfluorescein)NNRPVYIPRPRPPHPRL-NH2 [cf-Api88 (5(6)-carboxyfluorescein-labeled Api88, Gu-ONNRPVYIPRPRPPHPRL-NH2)] | – | – | 14.3 | – | – |
| {5(6)‑carboxyfluorescein}-VDKPPYLPRPRPPR[dR]IYN[dR]-NH2 [cf-Onc112 (5(6)-carboxyfluorescein-labeled Onc112, VDKPPYLPRPRPPRrIYNr-NH2)] | – | – | 1.14 | 0.05 | 0.06 |
| Gu-[Orn](5(6)‑carboxyfluorescein)NNRPVYIPRPRPPHPRL-OH [cf-Api137 (5(6)-carboxyfluorescein-labeled Api137, Gu-ONNRPVYIPRPRPPHPRL-OH)] | – | – | 20.2 | – | – |
